Assay results: PMC5290461

Molecular target: GST-β1A-integrin tails (UniProt P05556)
Assay: pull-down; different concentrations of purified His-tagged talin head incubated with glutathione agarose beads preloaded with GST-β1A-integrin tails or GST; lysis buffer A (50 mM Tris-HCl pH 7.4, 1% NP-40, 150 mM NaCl, 1 mM EDTA, protease inhibitors) with 0.5 mg/ml bovine gelatin; bound protein on SDS-PAGE, Coomassie blue, quantified against standards on the same gel; Kd fitted with SigmaPlot

Chain of UniProt P05556 (P05556 21-798): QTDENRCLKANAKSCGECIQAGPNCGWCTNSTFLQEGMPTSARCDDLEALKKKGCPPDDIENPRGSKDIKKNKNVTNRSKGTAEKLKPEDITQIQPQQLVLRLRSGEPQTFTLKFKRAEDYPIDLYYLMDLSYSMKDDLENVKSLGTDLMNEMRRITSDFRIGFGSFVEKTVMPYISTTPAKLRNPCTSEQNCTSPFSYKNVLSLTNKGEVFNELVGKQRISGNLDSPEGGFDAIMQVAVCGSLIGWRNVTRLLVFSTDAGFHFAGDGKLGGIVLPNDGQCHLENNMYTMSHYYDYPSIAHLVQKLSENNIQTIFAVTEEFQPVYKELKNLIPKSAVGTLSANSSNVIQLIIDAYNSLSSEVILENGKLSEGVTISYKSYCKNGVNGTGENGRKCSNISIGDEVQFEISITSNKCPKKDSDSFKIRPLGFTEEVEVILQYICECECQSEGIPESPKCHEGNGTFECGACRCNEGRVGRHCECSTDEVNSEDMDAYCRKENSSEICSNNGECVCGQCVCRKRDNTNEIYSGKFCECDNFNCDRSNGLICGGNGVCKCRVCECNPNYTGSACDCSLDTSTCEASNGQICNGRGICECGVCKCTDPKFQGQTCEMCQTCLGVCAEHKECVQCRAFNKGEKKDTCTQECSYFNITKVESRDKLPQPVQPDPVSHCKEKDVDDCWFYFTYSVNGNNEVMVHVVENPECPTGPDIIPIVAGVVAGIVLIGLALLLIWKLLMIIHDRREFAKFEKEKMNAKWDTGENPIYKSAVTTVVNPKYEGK

| Kd | Substance |
| --- | --- |
| 0.88 µM | His-tagged talin1(1-446) WT (from UniProt Q9Y490 1-446) (domain or fragment) |
| 0.35 µM | His-tagged talin2(1-449) WT (from UniProt Q9Y4G6 1-449) (domain or fragment) |
